The target of the experiment is KCNQ5-ER-c.

KCNQ2-ER-n (from UniProt O43526) returned a block of KCNQ2/5-tandem currents by 10 mM TEA in HEK293T cells of 48 % block.
